Article PMC10866885

Legend:
[1] = biological target: wild-type human VEGFR1 fused to mCherry (human) (UniProt P17948)
[2] = biological target: VEGFR1 C471R mutant fused to mCherry (human) (UniProt P17948)

VEGF165 (ligand)
diffusion coefficient (D confocal) of VEGFR1-mCherry on the plasma membrane of CHO cells by FRAP after 100 nM VEGF165, read as receptor dimerization [1]: 0.018 µm^2 s^−1 | diffusion coefficient (D confocal) of VEGFR1 C471R-mCherry on the plasma membrane of CHO cells by FRAP after 100 nM VEGF165, read as receptor dimerization [2]: 0.017 µm^2 s^−1
